± gives the uncertainty stated by the source.
Assay: protein stability index of a GFP-peptide fusion (yeast GPS) (PSI 1-4); higher = more stable; sorted into four equal gates, so the index is relative within each strain
How it was run: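 Peptides tiling yeast proteins in 17-residue segments were fused downstream of GFP, with Cherry expressed from the same plasmid. As a pooled library in yeast, mid-log cultures grown in leucine-free medium were sorted into four equal gates by GFP/Cherry fluorescence ratio. Gate plasmids were PCR-amplified and Illumina-sequenced, and barcodes linked reads to strains. Each peptide received a protein stability index equal to the sum of each gate's read frequency times its gate number.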

Row | Sequence | protein stability index (doa10∆) | protein stability index (pdr5∆) | protein stability index (ubr1∆) | protein stability index (san1∆)
1 | ARVSPRNNVANKQPRNE [YAR002W/NUP60] | 3.29 ± 0.14 | 3.78 ± 0.26 | 3.65 ± 0.25 | 
2 | NNNNTTTTTTTTNNNNT [SWI1] | 3.07 ± 0.031 | 2.68 ± 0.032 | 3.128 ± 0.02 | 3.363 ± 0.023
3 | GSVSEETELFEPGVLNT [ECM29] | 3.28 ± 0.16 | 3 ± 0.087 | 2.67 ± 0.083 | 3.07 ± 0.096
4 | ISFAAFILADAGLEITS [RPP1B] | 1.98 ± 0.063 | 1.8 ± 0.055 | 1.9 ± 0.076 | 2.03 ± 0.23
5 | LVREIAQDFKTDLRFQS [HHT1] | 2.55 ± 0.097 | 3 ± 0.078 | 2.88 ± 0.099 | 2.65 ± 0.076
6 | LHKIFYKVLKNNGLPEC [YCG1] | 1.68 ± 0.045 | 1.95 ± 0.043 | 2.13 ± 0.04 | 2.45 ± 0.049
7 | FDEEFDPFKTSSFNKRS [IRR1] | 2.76 ± 0.083 | 2.92 ± 0.061 | 2.78 ± 0.084 | 2.81 ± 0.11
8 | EKVTIAPLVLLSALDHY [RPN8] | 1.62 ± 0.033 | 1.63 ± 0.031 | 1.48 ± 0.029 | 1.42 ± 0.06
9 | SSTPKFTKKPVTPNDKI [SIR4] | 2.96 ± 0.11 | 2.89 ± 0.07 | 3.08 ± 0.054 | 2.96 ± 0.062
10 | EEGEYKNAANTEGHKGH [ISW2] | 3.31 ± 0.062 | 3.16 ± 0.069 | 3.21 ± 0.053 | 3.31 ± 0.064
11 | GMPNMPGMPNMPGMPNM [SRP54] | 3.37 ± 0.088 | 3.21 ± 0.064 | 3.14 ± 0.051 | 3.13 ± 0.061
12 | KKQAQKQTKLRKEKEKK [SMB1] | 3.04 ± 0.27 |  |  | 2.46 ± 0.3
13 | GSDKQMFTQIYLERIEL [YML103C/NUP188] | 2.5 ± 0.095 | 2.36 ± 0.086 | 1.53 ± 0.048 | 1.62 ± 0.23
14 | NSSNYAELFNNDIKLFV [PRP8] | 2.44 ± 0.041 | 2.48 ± 0.036 | 2.27 ± 0.029 | 2.26 ± 0.048
15 | DYVASLNELYQTQQDLP [NSL1] | 3 ± 0.056 | 3.19 ± 0.052 | 3.06 ± 0.039 | 3.12 ± 0.058
16 | RYNAKAIGSGSEGAQAE [PUP2] | 3.24 ± 0.093 | 3.14 ± 0.093 | 2.98 ± 0.075 | 3.36 ± 0.062
17 | QVLVTTNQDGLKFVKVR [RPB2] | 1.41 ± 0.075 | 1.78 ± 0.1 | 1.33 ± 0.11 | 1.69 ± 0.14
18 | IGLVKCTQMTDEGLLNM [GRR1] | 3.01 ± 0.068 | 2.91 ± 0.066 | 2.91 ± 0.043 | 2.81 ± 0.057
19 | DKQAEGTPLFTFGKKAD [YOR098C/NUP1] | 2.43 ± 0.06 | 2.43 ± 0.078 | 1.75 ± 0.066 | 2.5 ± 0.077
20 | DKQDGTAKPAFSFGAKP [YJL041W/NSP1] | 3.24 ± 0.087 | 3.29 ± 0.077 | 3.35 ± 0.086 | 3.22 ± 0.057
21 | AKRVENFNSSAPIADDN [DSN1] | 3.19 ± 0.084 | 3.32 ± 0.075 | 3.43 ± 0.059 | 2.9 ± 0.1
22 | ATVPSAPYRKQIISNAH [YAR002W/NUP60] | 2.34 ± 0.062 | 2.41 ± 0.069 | 2.37 ± 0.06 | 1.88 ± 0.093
23 | RRLAFLGIKVAELTGDS [BRR2] |  | 2.24 ± 0.19 |  | 2.71 ± 0.16
24 | RIDAFNALEHKYFTESD [SSN3] | 2.72 ± 0.055 | 3 ± 0.046 | 3.05 ± 0.052 | 2.95 ± 0.05
25 | DENKASATSKPAFSFGA [YJL041W/NSP1] | 2.96 ± 0.063 | 2.98 ± 0.055 | 2.97 ± 0.055 | 3 ± 0.05
26 | ELQKLVHDLNKYKSNTN [SMC2] | 3.15 ± 0.072 | 3.31 ± 0.071 | 3.32 ± 0.06 | 3.41 ± 0.047
27 | LASRNKWDDLNEQLTLL [RPN5] | 2.99 ± 0.09 | 3.4 ± 0.072 | 3.12 ± 0.047 | 3.26 ± 0.056

Row | Sequence | protein stability index (doa10∆) | protein stability index (pdr5∆) | protein stability index (ubr1∆) | protein stability index (san1∆)
28 | VSALDKCIKYSEKLITK [ECM29] | 3.18 ± 0.14 | 2.15 ± 0.1 | 1.92 ± 0.093 | 1.94 ± 0.12
29 | SDVLRFLQRVRVWEYRQ [RPL15A] | 1.34 ± 0.083 | 1.88 ± 0.066 | 2.01 ± 0.054 | 1.71 ± 0.083
30 | TKIPQIGDKFASRHGQK [RPB2] | 1.57 ± 0.073 | 2.3 ± 0.07 | 1.83 ± 0.039 | 2.77 ± 0.084
31 | IPTTKNLRLLVEENRVR [DLS1] |  | 3.08 ± 0.1 | 2.12 ± 0.061 | 2.87 ± 0.097
32 | GSKSDGSAATSGFEFSK [RPN1] | 2.7 ± 0.14 | 3.09 ± 0.14 | 3.1 ± 0.12 | 2.72 ± 0.14
33 | RKCETQKQWDDIAFVLN [YCS4] | 2.96 ± 0.076 | 3.01 ± 0.076 | 3.13 ± 0.078 | 2.7 ± 0.12
34 | QLQKILESLKPIDDTMT [MTW1] | 2.73 ± 0.072 | 2.86 ± 0.058 | 2.59 ± 0.042 | 2.69 ± 0.052
35 | GLGETSGDNHTQQSHEQ [RPT4] | 3.32 ± 0.14 | 3.19 ± 0.21 | 3.23 ± 0.22 | 
36 | HKMSMMAHRVKVIPYST [RPO21] | 2.47 ± 0.065 | 2.64 ± 0.062 | 2.44 ± 0.084 | 2.82 ± 0.079
37 | SAGLDSAQQNLASSFVN [RPN1] |  | 2.96 ± 0.16 | 3.2 ± 0.2 | 2.79 ± 0.17
38 | PSQSEEQKGQMAKKEGT [MED4] | 3.21 ± 0.2 | 3 ± 0.22 |  | 3.07 ± 0.19
39 | IASEVLIKQVPRLLGPQ [RPL1A] | 2.28 ± 0.13 | 1.87 ± 0.14 | 1.67 ± 0.068 | 2.27 ± 0.15
40 | VRKAITVLFFIGVRCYE [FAS1] | 1.47 ± 0.087 | 1.77 ± 0.075 | 1.45 ± 0.064 | 2.49 ± 0.098
41 | QDRLSDLIHKSEAFPSL [SMC4] | 3.31 ± 0.15 | 2.7 ± 0.11 | 3.03 ± 0.088 | 3.07 ± 0.077
42 | DVVEYLDKVINKELPIN [RPN8] | 2.82 ± 0.22 | 3 ± 0.2 | 3.12 ± 0.19 | 
43 | KSDEGGSYLCTSSTPSP [YOR098C/NUP1] | 3.16 ± 0.065 | 3.09 ± 0.079 | 3.07 ± 0.06 | 2.7 ± 0.067
44 | KLNTFENDLLQEFDSEL [SMC3] | 3.22 ± 0.13 | 3.3 ± 0.11 | 2.78 ± 0.1 | 3.03 ± 0.1
45 | EEDVYLDPLARVSKDKK [FAS2] | 3.5 ± 0.11 | 3.29 ± 0.11 | 3.47 ± 0.061 | 3.46 ± 0.069
46 | KFLNFRPPNGIKNFKSL [SSN2] | 1.87 ± 0.04 | 1.83 ± 0.04 | 1.79 ± 0.031 | 2.16 ± 0.061
47 | VLMERKDERGEGEAKQK [ITC1] | 2.94 ± 0.21 | 3.35 ± 0.24 | 3.07 ± 0.22 | 
48 | DSPASNEDDLTVKLTEI [RPO31] | 2.94 ± 0.071 | 3.15 ± 0.068 | 3.19 ± 0.056 | 2.97 ± 0.053
49 | LLRSVLVLLELVSSGDR [YML103C/NUP188] | 1.84 ± 0.23 | 2.03 ± 0.12 | 2.28 ± 0.15 | 
50 | VNRLLSVIPLKGRYAPE [RRP4] | 1.85 ± 0.17 | 1.68 ± 0.087 | 1.86 ± 0.055 | 2.33 ± 0.15
51 | KAELPQWYTLQSQLNVT [MED8] | 2.77 ± 0.055 | 2.9 ± 0.047 | 2.69 ± 0.056 | 2.8 ± 0.05
52 | ENLADLDYQIGNSESKV [LIN1] | 3.23 ± 0.099 | 3.42 ± 0.11 | 3.42 ± 0.1 | 3.06 ± 0.12
53 | FTLKQWNRLTISVTDTE [COR1] | 1.32 ± 0.049 | 1.22 ± 0.04 | 1.12 ± 0.047 | 1.14 ± 0.072

— the supplement of paper PMC9732359
